Measured values reported in the supplement of paper PMC9112550, “Optimization of the antimicrobial peptide Bac7 by deep mutational scanning” (BMC Biology, 2022).

These sequences were tested on Escherichia coli TOP10 (assay: shrunken log2 fold change of peptide-encoding DNA abundance (4.5 h post-induction vs induction); higher = less antimicrobial activity (less host growth inhibition)). Details: time post-induction: 4.5 h; library: site-saturation at positions 5, 18, 19, 20.
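Further: peptides expressed intracellularly from a pBAD plasmid library in pooled LB shake-flask culture, induced with 0.3% L-arabinose, DNA abundance read by NGS, three biological replicates, DESeq2 with apeglm shrinkage.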

| Sequence | shrunken log2 fold change |
| --- | --- |
| RRIRKRPPRLPRPRPRPLDDPRP | 0.227 |
| RRIRARPPRLPRPRPRPFGDPRP | 0.483 |
| RRIRARPPRLPRPRPRPSGRPRP | 0.0751 |
| RRIRSRPPRLPRPRPRPKNCPRP | -0.149 |
| RRIRQRPPRLPRPRPRPWTSPRP | 0.0602 |
| RRIRPRPPRLPRPRPRPSQTPRP | 0.265 |
| RRIRKRPPRLPRPRPRPRAKPRP | 0.173 |
| RRIRHRPPRLPRPRPRPCRVPRP | -0.242 |
| RRIRIRPPRLPRPRPRPMAVPRP | 0.142 |
| RRIRGRPPRLPRPRPRPWPQPRP | 0.498 |
| RRIRQRPPRLPRPRPRPRRSPRP | -0.0497 |
| RRIRVRPPRLPRPRPRPQQMPRP | 0.0393 |
| RRIRDRPPRLPRPRPRPIMQPRP | -0.0521 |
| RRIRCRPPRLPRPRPRPASPPRP | 0.117 |
| RRIRQRPPRLPRPRPRPHMHPRP | -0.39 |
| RRIRNRPPRLPRPRPRPSPDPRP | 0.0143 |
| RRIRMRPPRLPRPRPRPPCYPRP | -0.0907 |
| RRIRKRPPRLPRPRPRPHMNPRP | -0.295 |
| RRIRVRPPRLPRPRPRPGQFPRP | -0.156 |
| RRIRERPPRLPRPRPRPLKGPRP | 0.176 |
| RRIRDRPPRLPRPRPRPHIQPRP | -0.53 |
| RRIRHRPPRLPRPRPRPTFAPRP | 3.26 |
| RRIRLRPPRLPRPRPRPLWYPRP | -0.191 |
| RRIRFRPPRLPRPRPRPYYSPRP | -0.228 |
| RRIRYRPPRLPRPRPRPYWVPRP | -0.538 |

| Sequence | shrunken log2 fold change |
| --- | --- |
| RRIRSRPPRLPRPRPRPITEPRP | 0.0453 |
| RRIRKRPPRLPRPRPRPPCWPRP | 1.03 |
| RRIRERPPRLPRPRPRPQVVPRP | -0.42 |
| RRIRARPPRLPRPRPRPHDSPRP | 0.037 |
| RRIRNRPPRLPRPRPRPWKHPRP | -0.347 |
| RRIRVRPPRLPRPRPRPRNVPRP | -0.192 |
| RRIRTRPPRLPRPRPRPSDNPRP | -0.697 |
| RRIRMRPPRLPRPRPRPNRMPRP | -0.189 |
| RRIRRRPPRLPRPRPRPWTVPRP | -0.00497 |
| RRIRHRPPRLPRPRPRPIHIPRP | -0.733 |
| RRIRDRPPRLPRPRPRPPHMPRP | 1.51 |
| RRIRARPPRLPRPRPRPDGFPRP | 0.135 |
| RRIRNRPPRLPRPRPRPNCRPRP | -0.0373 |
| RRIRQRPPRLPRPRPRPGFVPRP | 0.217 |
| RRIRPRPPRLPRPRPRPMTLPRP | -0.189 |
| RRIRPRPPRLPRPRPRPIHLPRP | -0.146 |
| RRIRYRPPRLPRPRPRPSWVPRP | -0.597 |
| RRIRKRPPRLPRPRPRPPDTPRP | 0.896 |
| RRIRVRPPRLPRPRPRPTEWPRP | 0.322 |
| RRIRFRPPRLPRPRPRPAKVPRP | 0.333 |
| RRIRRRPPRLPRPRPRPYAHPRP | 0.082 |
| RRIRYRPPRLPRPRPRPNAKPRP | -0.0394 |
| RRIRVRPPRLPRPRPRPVLVPRP | -0.311 |
| RRIRNRPPRLPRPRPRPFEYPRP | -0.266 |
| RRIRKRPPRLPRPRPRPHEPPRP | 0.0467 |

| Sequence | shrunken log2 fold change |
| --- | --- |
| RRIRARPPRLPRPRPRPWGHPRP | 0.0337 |
| RRIRDRPPRLPRPRPRPEPRPRP | 1 |
| RRIRIRPPRLPRPRPRPAQSPRP | 0.227 |
| RRIRERPPRLPRPRPRPTLCPRP | 0.259 |
| RRIRRRPPRLPRPRPRPRIDPRP | -0.0185 |
| RRIRKRPPRLPRPRPRPHKHPRP | -0.119 |
| RRIRVRPPRLPRPRPRPLYYPRP | -0.453 |
| RRIRWRPPRLPRPRPRPEQVPRP | 0.21 |
| RRIRQRPPRLPRPRPRPDEKPRP | 0.02 |
| RRIRMRPPRLPRPRPRPMRHPRP | 0.452 |
| RRIRERPPRLPRPRPRPKPSPRP | 0.229 |
| RRIRKRPPRLPRPRPRPASVPRP | 0.291 |
| RRIRARPPRLPRPRPRPASIPRP | 0.0775 |
| RRIRMRPPRLPRPRPRPCHPPRP | 0.00663 |
| RRIRIRPPRLPRPRPRPYIWPRP | -0.0625 |
| RRIRGRPPRLPRPRPRPGLRPRP | 0.875 |
| RRIRERPPRLPRPRPRPYDLPRP | -0.169 |
| RRIRWRPPRLPRPRPRPCCKPRP | 0.0725 |
| RRIRYRPPRLPRPRPRPISPPRP | 0.0589 |
| RRIRWRPPRLPRPRPRPQEHPRP | 0.0218 |
| RRIRGRPPRLPRPRPRPETEPRP | 2.25 |
| RRIRIRPPRLPRPRPRPPKSPRP | -0.0284 |
| RRIRARPPRLPRPRPRPFYQPRP | -0.00727 |
| RRIRLRPPRLPRPRPRPGEVPRP | 0.117 |
| RRIRNRPPRLPRPRPRPPMDPRP | -0.508 |

| Sequence | shrunken log2 fold change |
| --- | --- |
| RRIRARPPRLPRPRPRPRENPRP | 1.06 |
| RRIRARPPRLPRPRPRPHRFPRP | -0.176 |
| RRIRFRPPRLPRPRPRPALPPRP | 0.0544 |
| RRIRSRPPRLPRPRPRPRRHPRP | 0.323 |
| RRIRFRPPRLPRPRPRPFRTPRP | -0.444 |
| RRIRIRPPRLPRPRPRPGTIPRP | -0.438 |
| RRIRGRPPRLPRPRPRPTVDPRP | 0.836 |
| RRIRSRPPRLPRPRPRPCEFPRP | -0.227 |
| RRIRMRPPRLPRPRPRPESVPRP | 0.958 |
| RRIRARPPRLPRPRPRPLRHPRP | 0.619 |
| RRIRYRPPRLPRPRPRPAHQPRP | 0.126 |
| RRIRARPPRLPRPRPRPLFNPRP | -0.064 |
| RRIRTRPPRLPRPRPRPRRLPRP | 0.172 |
| RRIRVRPPRLPRPRPRPPQCPRP | -0.143 |
| RRIRGRPPRLPRPRPRPFKRPRP | 0.301 |
| RRIRERPPRLPRPRPRPHVAPRP | 0.0131 |
| RRIRNRPPRLPRPRPRPDQNPRP | -0.017 |
| RRIRHRPPRLPRPRPRPFNYPRP | 0.0485 |
| RRIRVRPPRLPRPRPRPSNGPRP | -0.219 |
| RRIRIRPPRLPRPRPRPLRMPRP | -0.04 |
| RRIRCRPPRLPRPRPRPFKCPRP | -0.232 |
| RRIRRRPPRLPRPRPRPWKYPRP | -0.478 |
| RRIRTRPPRLPRPRPRPLKPPRP | -0.126 |
| RRIRHRPPRLPRPRPRPQYRPRP | -0.0967 |
| RRIRIRPPRLPRPRPRPFRFPRP | -0.392 |

| Sequence | shrunken log2 fold change |
| --- | --- |
| RRIRSRPPRLPRPRPRPIGLPRP | 0.074 |
| RRIRCRPPRLPRPRPRPTGHPRP | -0.113 |
| RRIRCRPPRLPRPRPRPSIAPRP | -0.3 |
| RRIRCRPPRLPRPRPRPVWTPRP | 0.0232 |
| RRIRPRPPRLPRPRPRPMPGPRP | -0.0627 |
| RRIRARPPRLPRPRPRPPGFPRP | 0.59 |
| RRIRGRPPRLPRPRPRPYPMPRP | -0.142 |
| RRIRYRPPRLPRPRPRPMYFPRP | -0.48 |
| RRIRQRPPRLPRPRPRPVHCPRP | -0.166 |
| RRIRARPPRLPRPRPRPCDLPRP | 0.15 |
| RRIRHRPPRLPRPRPRPDPFPRP | -0.409 |
| RRIRMRPPRLPRPRPRPADVPRP | 0.0241 |
| RRIRIRPPRLPRPRPRPQCFPRP | 0.0204 |
| RRIRERPPRLPRPRPRPNYIPRP | -0.672 |
| RRIRIRPPRLPRPRPRPKQQPRP | 0.0512 |
| RRIRGRPPRLPRPRPRPNCLPRP | 0.191 |
| RRIRWRPPRLPRPRPRPQVIPRP | -0.127 |
| RRIRDRPPRLPRPRPRPLSYPRP | 0.194 |
| RRIRKRPPRLPRPRPRPWCAPRP | 0.113 |
| RRIRNRPPRLPRPRPRPVVQPRP | 0.0488 |
| RRIRKRPPRLPRPRPRPIKKPRP | -0.077 |
| RRIRYRPPRLPRPRPRPWYQPRP | -3.18 |
| RRIRKRPPRLPRPRPRPLEFPRP | 0.124 |
| RRIRTRPPRLPRPRPRPGGHPRP | 0.0329 |
| RRIRFRPPRLPRPRPRPFDLPRP | -0.352 |

| Sequence | shrunken log2 fold change |
| --- | --- |
| RRIRIRPPRLPRPRPRPATWPRP | -0.273 |
| RRIRGRPPRLPRPRPRPGFMPRP | 0.488 |
| RRIRRRPPRLPRPRPRPEFGPRP | 0.376 |
| RRIRVRPPRLPRPRPRPSVYPRP | -0.25 |
| RRIRPRPPRLPRPRPRPASQPRP | 0.0417 |
| RRIRVRPPRLPRPRPRPPVYPRP | -0.329 |
| RRIRNRPPRLPRPRPRPEGDPRP | -0.043 |
| RRIRGRPPRLPRPRPRPGCWPRP | 1.39 |
| RRIRYRPPRLPRPRPRPDFCPRP | -0.228 |
| RRIRYRPPRLPRPRPRPSCDPRP | -0.74 |
| RRIRIRPPRLPRPRPRPWFKPRP | -1.74 |
| RRIRRRPPRLPRPRPRPWMIPRP | -0.26 |
| RRIRLRPPRLPRPRPRPKKNPRP | 0.144 |
| RRIRCRPPRLPRPRPRPLDDPRP | -0.119 |
| RRIRTRPPRLPRPRPRPSDDPRP | -0.182 |
| RRIRIRPPRLPRPRPRPHSLPRP | 0.0644 |
| RRIRARPPRLPRPRPRPIHKPRP | -0.0416 |
| RRIRNRPPRLPRPRPRPWQIPRP | -0.102 |
| RRIRARPPRLPRPRPRPMWVPRP | -0.0205 |
| RRIRPRPPRLPRPRPRPGGIPRP | 0.114 |
| RRIRTRPPRLPRPRPRPPWDPRP | 0.294 |
| RRIRARPPRLPRPRPRPRLHPRP | 0.376 |
| RRIRKRPPRLPRPRPRPEQRPRP | 0.431 |
| RRIRRRPPRLPRPRPRPGGYPRP | -0.0378 |
| RRIRMRPPRLPRPRPRPLSMPRP | -0.289 |
